Results reported in the supplement of paper PMC7877785.
± gives the uncertainty stated by the source.

Assay: self-splicing fitness, log relative to wild type (ln ratio); higher = more splicing; Tetrahymena group I intron in knt gene, E. coli kanamycin selection, DiMSum; sequences stand for … in CUCUCU…GGAGGGAAAAGUUAUCAGGCAUGCACCUGGUAGCUAGUCUUUAAACCAAUAGAUUGCAUCGGUUUAAAAGGCAAGACCGUCAAAUUGCGGGAAAGGGGUCAACAGCCGUUCAGUACCAAGUCUCAGGGGAAACUUUGAGAUGGCCUUGCAAAGGGUAUGGUAAUAAGCUGACGGACAUGGUCCUAACCACGCAGCCAAGUCCUAAGUCAACAGAUCUUCUGUUGAUAUGGAUGCAGUUCACAGACUAAAUGUCGGUCGGGGAAGAUGUAUUCUUCUCAUAAGAUAUAGUCGGACCUCUCCUUAAUGGGAGCUAGCGGAUGAAGUGAUGCAACACUGGAGCCGCUGGGAACUAAUUUGUAUGCGAAAGUAUAUUGAUUAGUUUUGGAGUACUCGUGGUCG
Summary of the method: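 Pooled colonies went to amplicon sequencing on an Illumina HiSeq 2500 after six replicate transformations. The plates were LB agar with 100 μg/mL carbenicillin, 50 μM IPTG and 0.2% rhamnose, with or without 25 μg/mL kanamycin, incubated overnight at 37°C or 30°C. The E. coli BL21(DE3) library had all eight P1ex-region intron nucleotides randomised, the intron placed in the knt kanamycin-resistance gene on pET-22b(+). DiMSum fitness is the error-weighted combination of replicate fold changes, kanamycin against none, normalised to wild type.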

Row | Sequence | self-splicing fitness (ln) (30 °C) | self-splicing fitness (ln) (37 °C)
1 | UAUCAGCAAUAUUACGCUCA | -0.0488 ± 0.092 | 0.0773 ± 0.11
2 | UAUCAGCAAUAUUACGGACG | -0.108 ± 0.091 | 0.00709 ± 0.11
3 | UAUCAGCAAUAUUACGGAGC | -3.14 ± 0.17 | -3.71 ± 0.19
4 | UAUCAGCAAUAUUACGGCAA | -0.306 ± 0.12 | 0.808 ± 0.15
5 | UAUCAGCAAUAUUACGGGCG | 0.0109 ± 0.065 | 0.684 ± 0.088
6 | UAUCAGCAAUAUUACGGUCU | -0.719 ± 0.092 | -0.878 ± 0.11
7 | UAUCAGCAAUAUUACGUCCU | -1.44 ± 0.18 | -1.01 ± 0.2
8 | UAUCAGCAAUAUUACGUUAC | -4.75 ± 0.39 | -2.6 ± 0.21
9 | UAUGAGCAAUAUUACGAACU |  | -1.57 ± 0.26
10 | UAUGAGCAAUAUUACGAAGG | -3.5 ± 0.2 | -1.4 ± 0.22
11 | UAUGAGCAAUAUUACGAAUA | -2.94 ± 0.27 | -2.22 ± 0.21
12 | UAUGAGCAAUAUUACGACAA | -2.78 ± 0.29 | -0.6 ± 0.18
13 | UAUGAGCAAUAUUACGACAC |  | -1.97 ± 0.41
14 | UAUGAGCAAUAUUACGACAU | -3.523 ± 0.029 | -2.56 ± 0.042
15 | UAUGAGCAAUAUUACGAGAA | -2.28 ± 0.37 | -0.332 ± 0.24
16 | UAUGAGCAAUAUUACGCAAA | -2.74 ± 0.45 | 
17 | UAUGAGCAAUAUUACGCAAU | -3.54 ± 0.25 | -2.32 ± 0.18
18 | UAUGAGCAAUAUUACGCGAC | -2.82 ± 0.44 | -0.954 ± 0.39
19 | UAUGAGCAAUAUUACGCGCC | -4.05 ± 0.42 | 
20 | UAUGAGCAAUAUUACGCGGA | -2.39 ± 0.25 | -1.69 ± 0.24
21 | UAUGAGCAAUAUUACGCGUG | -1.88 ± 0.12 | -1.04 ± 0.11

Row | Sequence | self-splicing fitness (ln) (30 °C) | self-splicing fitness (ln) (37 °C)
22 | UAUGAGCAAUAUUACGGAUG | -2.09 ± 0.12 | -1.64 ± 0.17
23 | UAUGAGCAAUAUUACGGCGU | -3.11 ± 0.21 | -2.38 ± 0.29
24 | UAUGAGCAAUAUUACGGUCU | -2.78 ± 0.28 | -2.96 ± 0.4
25 | UAUGAGCAAUAUUACGUCGA | -3.12 ± 0.38 | -2.47 ± 0.36
26 | UAUGAGCAAUAUUACGUCUU | -2.71 ± 0.27 | -1.93 ± 0.23
27 | UAUGAGCAAUAUUACGUGUG | -2.41 ± 0.097 | -1.1 ± 0.085
28 | UAUGAGCAAUAUUACGUGUU | -3.34 ± 0.17 | -2.99 ± 0.18
29 | UAUUAGCAAUAUUACGACAG | -1.58 ± 0.18 | -0.556 ± 0.19
30 | UAUUAGCAAUAUUACGACCG | 0.0866 ± 0.13 | -0.0729 ± 0.16
31 | UAUUAGCAAUAUUACGACUA | -0.146 ± 0.096 | 0.46 ± 0.11
32 | UAUUAGCAAUAUUACGAGAC | -2.57 ± 0.47 | 
33 | UAUUAGCAAUAUUACGAGUA | -0.732 ± 0.25 | -0.0897 ± 0.24
34 | UAUUAGCAAUAUUACGAUCA | -0.168 ± 0.11 | -0.249 ± 0.14
35 | UAUUAGCAAUAUUACGAUGA | -0.641 ± 0.11 | 0.262 ± 0.13
36 | UAUUAGCAAUAUUACGAUGU | -3.01 ± 0.23 | -1.06 ± 0.15
37 | UAUUAGCAAUAUUACGCAAG | -2.29 ± 0.16 | -1.8 ± 0.18
38 | UAUUAGCAAUAUUACGCAUC | -3.67 ± 0.31 | -1.7 ± 0.3
39 | UAUUAGCAAUAUUACGCCCG | 0.243 ± 0.36 | 1.09 ± 0.36
40 | UAUUAGCAAUAUUACGCGUA | -1.95 ± 0.16 | -0.462 ± 0.12
41 | UAUUAGCAAUAUUACGCUGC | -2.92 ± 0.27 | -2.59 ± 0.49
42 | UAUUAGCAAUAUUACGGAAU | -4.02 ± 0.33 | -0.66 ± 0.19

Row | Sequence | self-splicing fitness (ln) (30 °C) | self-splicing fitness (ln) (37 °C)
43 | UAUUAGCAAUAUUACGGACA | -1.16 ± 0.2 | 0.703 ± 0.28
44 | UAUUAGCAAUAUUACGGACU | -2.33 ± 0.31 | -1.47 ± 0.4
45 | UAUUAGCAAUAUUACGGAGU | -3.84 ± 0.43 | -2.01 ± 0.29
46 | UAUUAGCAAUAUUACGGAUA |  | -0.897 ± 0.46
47 | UAUUAGCAAUAUUACGGAUC | -1.65 ± 0.18 | -0.508 ± 0.28
48 | UAUUAGCAAUAUUACGGUAU | -3.6 ± 0.29 | -2.26 ± 0.31
49 | UAUUAGCAAUAUUACGGUUG | -0.953 ± 0.15 | -0.107 ± 0.17
50 | UAUUAGCAAUAUUACGUACU | -0.305 ± 0.13 | -0.224 ± 0.16
51 | UAUUAGCAAUAUUACGUAUC | -3.31 ± 0.24 | -2.47 ± 0.29
52 | UAUUAGCAAUAUUACGUCGG | -1.21 ± 0.12 | -0.795 ± 0.15
53 | UAUUAGCAAUAUUACGUGAC | -2.92 ± 0.42 | -1.82 ± 0.27
54 | UAUUAGCAAUAUUACGUGGA | -2.75 ± 0.32 | -0.0772 ± 0.19
55 | UAUUAGCAAUAUUACGUGGG | -4.06 ± 0.27 | -2.44 ± 0.17
56 | UAUUAGCAAUAUUACGUUAC | -3.17 ± 0.23 | -2.86 ± 0.32
57 | UCAAAGCAAUAUUACGAAGG | -2.26 ± 0.1 | -1.05 ± 0.13
58 | UCAAAGCAAUAUUACGAAUU | -3.32 ± 0.25 | -1.65 ± 0.16
59 | UCAAAGCAAUAUUACGACCG | -0.525 ± 0.15 | 0.396 ± 0.21
60 | UCAAAGCAAUAUUACGACGA | -0.51 ± 0.074 | 0.278 ± 0.095
61 | UCAAAGCAAUAUUACGACUG | -0.4 ± 0.086 | -0.859 ± 0.11
62 | UCAAAGCAAUAUUACGAGGU | -3.05 ± 0.13 | -2.14 ± 0.14
